Here are results for 17 molecules from patent US20090169562A1 (CRUCELL HOLLAND B V, published 2009).

Test [1] addresses T1, bovine serum albumin (BSA) (bovine, UniProt P02769 25-607).
T1 construct: Control antigen coated at 1% in PBS (pH 7.4); also called negative control antigen
The test is described as follows: phage ELISA, BSA coated. On the procedure:
(§1) Selected single-chain phage antibodies that were obtained in the screens described above were validated in ELISA for specific enterococcal binding activity, i.e. binding to one or more enterococcal strains prepared as described supra. 2.5×10⁸ bacteria were coated overnight at 4° C. to Maxisorp™ ELISA plates in 50 μl 50 mM carbonate buffer, pH 9.6. As negative controls, the complex antigens 2% ELK and 1% BSA both in PBS (pH 7.4) were coated. Wells were washed in PBS containing 0.1% (v/v) Tween-20 and blocked with 300 μl PBS containing 2% ELK for at least 1 hour at room temperature. The selected single-chain phage antibodies were incubated for 15 minutes in an equal volume of PBS containing 2% ELK to obtain blocked phage antibodies. The plates were emptied and the blocked single-chain phage antibodies were added to the wells. Incubation was allowed to proceed for one hour at room temperature, the plates were washed in PBS containing 0.1% (v/v) Tween-20 and bound phage antibodies were detected using an anti-M13 antibody conjugated to peroxidase. Absorbance at 492 nm was measured using a spectrophotometer. As a control, the procedure was performed simultaneously without single-chain phage antibody and with a negative control single-chain phage antibody directed against West Nile virus envelope protein (SC04-374).
On the technique in general: An ELISA detects its analyte on a solid surface through an enzyme-linked reagent.

For test [2], the target named is T1, bovine serum albumin (BSA). The experiment in a line: phage ELISA, 1% BSA coated, anti-M13-HRP detection. On the procedure: as §1

T1 sequence (P02769 25-607 limits assumed): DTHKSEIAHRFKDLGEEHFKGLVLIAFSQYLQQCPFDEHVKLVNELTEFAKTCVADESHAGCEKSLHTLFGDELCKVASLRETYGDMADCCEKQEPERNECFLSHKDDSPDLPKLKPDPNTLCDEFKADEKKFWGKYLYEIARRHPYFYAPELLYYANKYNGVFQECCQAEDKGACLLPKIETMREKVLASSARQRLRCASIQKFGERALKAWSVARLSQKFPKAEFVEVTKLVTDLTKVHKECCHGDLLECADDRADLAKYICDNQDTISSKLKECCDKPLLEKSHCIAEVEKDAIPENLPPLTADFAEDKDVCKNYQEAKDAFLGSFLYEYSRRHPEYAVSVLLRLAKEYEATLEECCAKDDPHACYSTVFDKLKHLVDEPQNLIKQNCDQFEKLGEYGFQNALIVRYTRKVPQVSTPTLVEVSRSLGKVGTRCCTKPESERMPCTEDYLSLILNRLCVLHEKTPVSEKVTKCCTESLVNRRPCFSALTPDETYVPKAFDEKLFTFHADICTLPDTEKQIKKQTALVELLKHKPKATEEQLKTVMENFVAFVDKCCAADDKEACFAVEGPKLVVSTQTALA

B1: SC06-079 (scFv)
scFv: EVQLVESGGGLVQPGGSLRLSCAASGFTFSSYAMSWVRQAPGKGLEWVSAISGTGGSAYYADSVKGRFTISRDNSKNTVYLQMNSLRAEDTAVYYCAKGHSSGTNWGQGTLVTVSSGTGGSGGTGSGTGGSTSYVLTQPPSASGTPGQRVTISCSGSSSNIGSNFVYWYQQLPGTAPKLLIYRNNQRPSGVPDRFSGSKSGTSASLAISGLRSEDEADYYCAAWDDSLSGVLFGGGTQLTVL
notes: Vl 133-242); also called single-chain phage antibody SC06-079
With B1, the binding result in test [1] was “no binding”. Further, the OD492 nm in test [2] came to 0.048 OD492 nm.

B2: SC06-089 (scFv)
scFv: EVQLVETGGGLVQPGGSLRLSCAASGFTFSSYSMNWVRQAPGKGLEWVSFISSSSSTIYYADSVKGRFTIARDNAKNSLYLQMNSLRDEDTAVYYCARPVGTGISLFHAFDIWGQGTMVTVSSGTGGSGGTGSGTGGSTQSVLTQPPSVSVAPGQTARITCGGNNIGSKYVHWYQQKPGQAPVLVVYDDSDRPSGIPERFSGSNSGNTATLTISRVEAGDEADFYCQVWDGSSDPVVFGGGTKLTVL
notes: Vl 140-247); also called single-chain phage antibody SC06-089
In the case of B2, in test [1], the binding result is given as “no binding”. The molecule further returned an OD492 nm in test [2] of 0.042 OD492 nm.

B3: SC06-087 (scFv)
scFv: EVQLVESGGGLVKPGGSLRLSCAASGFTFSSNSMNWVRQAPGKGLEWVSFISSSSTYIYYADSVKGRFTISRDNAKNSLYLQMNSLRAEDTAVYYCARESAAGISYDAFDIWGQGTMVTVSSGTGGSGGTGSGTGGSTQSALTQPASVSGSPGQSITISCTGTSSDVGGYKYVSWYQQHPGKAPKLMIYEVSNRPSGVSNRFSGSKSGSTASLTISGLQAEDEADYYCSSYTSSSTLGVFGTGTKVTVL
notes: Vl 139-249); also called single-chain phage antibody SC06-087
On to B3, for which the binding result in test [1] was “no binding”. In addition, the OD492 nm in test [2] was 0.044 OD492 nm.

B4: SC06-195 (scFv, V domains shown)
VH: EVQLVESGGGVVQPGRSLRLSCAASGFTFSSYGMHWVRQAPGKGLEWVAVIWYDGSNKYYADSVKGRFTISRDNSQNTLYLQMNSLRAEDTAVYYCTSYAIAATPGQGTLVTVSS
VL: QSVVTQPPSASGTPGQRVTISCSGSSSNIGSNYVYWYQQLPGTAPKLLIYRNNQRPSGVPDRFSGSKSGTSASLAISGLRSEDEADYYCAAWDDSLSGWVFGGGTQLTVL
For the molecule B4, in test [2], the OD492 nm amounted to 0.046 OD492 nm.

B5: SC06-191 (scFv)
scFv: EVQLVESGGGVVQPGRSLRLSCVASEFTFSNYGMHWVRQAPGKGLEWVAVIWYDGSNEDYADSVKGRFTISRDNSKNTVYLHMNSLRAEDTAVYFCTRGQYSSTWFLDYWGQGTLVTVSSGTGGSGGTGSGTGGSTDIQLTQSPSTLSASVGDRVTITCRASQSISSWLAWYQQKPGKAPKLLIYKASSLETGVPSRFSGSGSGTDFTLTISSLQPEDFATYYCQQANSFPLTFGGGTKVDIK
notes: Vl 137-243); also called single-chain phage antibody SC06-191
On to B5, for which the binding result in test [1] is listed as “no binding”. The molecule further displayed an OD492 nm in test [2] of 0.044 OD492 nm.

B6: SC06-198 (scFv)
scFv: QLQLQESGPGLVKPSETLSLTCAVSGYSITSGYYWGWVRQPPGKGLEWIGSIYHTGSTYYNPSLKSRVTISVDTSKNQFSLKLNSLTAADTAVYFCASQSPAFDFWGQGTMVTVSSGTGGSGGTGSGTGGSTQSVLTQPPSVSGAPGQRVTISCTGSSSNIGTGYDVHWYQQLPGTAPKLLIYGNNNRPSGVPDRFSGSKSGTSASLAITGLQAEDEADYYCATWDDSLNGWVFGGGTKLTVP
notes: Vl 133-243); also called single-chain phage antibody SC06-198
Regarding B6, in test [1], the binding result is given as “no binding”. In test [2], this molecule registered an OD492 nm of 0.049 OD492 nm.

B7: SC06-071 (scFv)
scFv: EVQLVESGGGVVQPGRSLRLSCAASGFTFSSYGMHWVRQAPGKGLEWVAMIWSDGSNKYYADSVKGRFTISRDNSKNTLYLQMNSLRVEDTAVYYCASNYGSGSYWGGFDYWGQGTLVTVSSGTGGSGGTGSGTGGSTQSALTQPASVSGSPGQSITISCTGTSSDVGGYNLVSWYQQHPGKAPKLMIYEGSKRPSGVSNRFFGSKSGDTASLTISGLQAEDEADYYCSSYTTSSTHVFGTGTKVTVL
notes: Vl 139-248); also called single-chain phage antibody SC06-071
On to B7, for which the binding result in test [1] was “no binding”. For the same molecule, the OD492 nm in test [2] came out at 0.043 OD492 nm.

B8: SC06-077 (scFv)
scFv: QVQLVQSGAEVKKPGSSVKVSCKASGGTFSSYAISWVRQAPGQGLEWMGGIIPIFGTANYAQKFQGRVTITADESTSTAYMELSSLRSEDTAVYYCAREGGVGPAFDIWGQGTMVTVSSGTGGSGGTGSGTGGSTDIQMTQSPDSLAVSLGERATINCKSSQSVLHNSNNKNYLAWYQQKPGQPPKLLIYWASTRESGVPDRFSGSGSGTDFTLTISSLQAEDVAVYYCQQYYGSPYTFGQGTKLEIK
notes: Vl 136-248); also called single-chain phage antibody SC06-077
B8: the binding result in test [1] is “no binding”. The molecule further registered an OD492 nm in test [2] of 0.044 OD492 nm.

B9: SC06-050 (scFv)
scFv: EVQLVESGPEVKKPGASVKVSCEASGYNLDNYGITWVRQAPGQGLEWLGWISAYNAKTEYGQRLQGRVTMTTDTATSTAYLELRSLRSDDTAVYYCARVLGYRGGWYDEGDAFDVWGQGTMVTVSSGTGGSGGTGSGTGGSTDIQLTQSPSFLSASVGDRVTITCRASQGIRSHLAWYQQKAGKAPKLLIYAASTLQSGVPSRFSGSGSGTEFTLTISSLQPDDFAAYYCQQLNTYPITFGQGTRLEIK
notes: Vl 143-249); also called single-chain phage antibody SC06-050
Regarding B9, the binding result in test [1] is “no binding”. This molecule also had an OD492 nm in test [2] of 0.043 OD492 nm.

B10: SC06-241 (scFv)
scFv: EVQLVESGGGLVQPGRSLRLSCAASGFTFRSYAMYWVRQAPGKGLEWLALISHDASKMFYADSVKGRFTISRDNSKNTLSLQMNSLTIEDTAVYYCVRERTGYYGAYWGQGTLVTVSSGTGGSGGTGSGTGGSTDIQMTQSPSSLSASVGDRVTLTCRASQGIGTWLAWYQQKPGKAPKLLIYSASSLQSGVPSRFSGSGSGTDFTLSISNLQPEDFATYYCQQANSFPITFGQGTRLEIK
notes: Vl 135-241); also called single-chain phage antibody SC06-241
Consider B10, for which the binding result in test [1] is “no binding”. In test [2], this molecule returned an OD492 nm of 0.052 OD492 nm.

B11: SC06-242 (scFv)
scFv: EVQLVESGPGLVKPSETLSLTCTVSGGSISSYYWSWIRQPPGKGLEWIGYIYYTGTTNYNPSLNSRVTISADTSKNQFSLKLSSVTAADTAVYYCARGGQTAGVWGKGTTVTVSSGTGGSGGTGSGTGGSTQSVLTQPPSVSVAPGQTARITCGGYNIGRKSVHWYQQKPGLAPVLVVYDNSDRPSGIPARFSGSNSGNTATLTISGTQAMDEADYYCQAWDRGTAVFGTGTKVTVL
notes: Vl 132-237); also called single-chain phage antibody SC06-242
Turning to B11, in test [1], the binding result was “no binding”. Besides, in test [2], the OD492 nm came out at 0.043 OD492 nm.

B12: SC05-166 (scFv)
scFv: QVQLVQSGAEVKKPGASVKVSCKASGYTFTSYAISWVRQAPGQGLEWMGWISAYNGNTNYARKLQGRVTMTTDTSTSTAYMELRSLRSDDTAVYYCARAGLMFTAWFGELWDHGTKDNWFDPWGQGTLVTVSSGTGGSGGTGSGTGGSTNFMLTQPHSVSESPGKTVTISCTRSSGSIASYYVQWYQQRPGSSPTTVIYEDNQRPSGVPDRFSGSIDSSSNSASLTISGLKTEDEADYYCQSYDSSNQVFGGGTKLTVL
notes: Vl 150-259); also called single-chain phage antibody SC05-166
For B12, the OD492 nm in test [2] came out at 0.104 OD492 nm.

B13: SC06-078 (scFv)
scFv: EVQLVESGAEVKKPGSSVKVSCKASGGTFSSYAISWVRQAPGQGLEWMGGIIPIFGTANYAQKFQGKVTITADESTSTAYMELSSLRSEDTAVYYCARLSPRYYGMDVWGQGTTVTVSSGTGGSGGTGSGTGGSTQSALTQPRSVSGSPGQSVTISCTGTSSDVGGYNYVSWYQQHPGKAPKLMIYGGSERPSGVSNRFSGSKSGNTASLTISGVQAEDEADYYCSSYTSSGTLLFGGGTQLTVL
notes: Vl 136-245); also called single-chain phage antibody SC06-078
As for B13, in test [1], the binding result was “no binding”. For the same molecule, the OD492 nm in test [2] is 0.073 OD492 nm.

B14: SC06-246 (scFv)
scFv: EVQLVESGGGLIQPGGSLRLSCAASGFTVSSDFMTWVRQAPGRGLEWVSLIYSGGKTNYADSVKGRFTISRDNSRNTLYLQMNSLRAEDTAVYYCARSVCSTISCSKLDDWGQGTLVTVSSGTGGSGGTGSGTGGSTQAVLTQPSSVSVAPGQTARITCGGNNIGRKSVHWYQQKPGLAPVLVVNDNSDRPSGIPARFSGSNSGNTATLTISRVEAGDEADYYCHVWGSSRDHYVFGTGTKVTVL
notes: Vl 138-245); also called single-chain phage antibody SC06-246
In the case of B14, in test [1], the binding result is “no binding”. The OD492 nm in test [2] is 0.042 OD492 nm.

B15: SC06-252 (scFv)
scFv: EVQLVETGGGLVQPGGSLRLSCAASGLTFSSYAMSWVRQAPGKGLEWVSALSGSTTFYADSVKGRFTISRDNAKNTLYLQMNSLRAEDTAVYYCARGNYYGMDVWGQGTTVTVSSGTGGSGGTGSGTGGSTSYVLTQPPSASGTPGQRVTISCSGSSSNIGKFYVYWYQQFPGAAPKLLIYSNNQRPSGVPDRFSGSKSGTSASLAISGLQSEDEADYYCAAWDGSLNGYVFGTGTKVTVL
notes: Vl 132-241); also called single-chain phage antibody SC06-252
For the molecule B15, the binding result in test [1] is listed as “no binding”. The molecule further came in with an OD492 nm in test [2] of 0.044 OD492 nm.

B16: SC06-092 (scFv)
scFv: EVQLVESGGGLVQPGRSLRLSCTGSGFTFGDYAMSWFRQAPGKGLEWVGFIRNKAYGGTAEYAASVKDRFIISRDDSKSIAYLQMNSLKTEDTAVYYCVRREYDTGWLDYWGQGTLVTVSSGTGGSGGTGSGTGGSTQSALTQPPSASGSPGQSVTISCTGTSSDVGGYNYVSWYQRHPGKAPKLMIYDVTDRPSGVSNRFSGSKSGNTASLTISGLQAEDEADYYCSSYTSSSTSAVFGGGTKLTVL
notes: Vl 138-248); also called single-chain phage antibody SC06-092
As for B16, the binding result in test [1] is “no binding”. Moreover, in test [2], the OD492 nm was 0.047 OD492 nm.

B17: SC05-157 (scFv)
scFv: EVQLVESGAEVKKPGESLKISCKGSGYSFTNYWIGWVRQMPGKGLEWMGIVYPGDSDTRYSPSFQGQVTISADKSISTAYLQWSSLKASDTAVYYCARRMAVAGSDAFDIWGQGTMVTVSSGTGGSGGTGSGTGGSTQAVLTQPSSASGTPGQTVTISCSGSTSNIGSHNVNWYQHLPGTAPKLLIYINNKRPSGVPDRFSGSKSGSSASLAISGLQSEDEADYYCAAWDDSLRRPVFGGGTQLTVL
notes: Vl 138-247); also called single-chain phage antibody SC05-157
On to B17, for which, in test [1], the binding result is on record as “no binding”. In addition, the OD492 nm in test [2] stood at 0.058 OD492 nm.
